Where “and” joins values, the source holds several entries; their conditions need not be identical. Equal entries are not always repeated. Some results are limits rather than exact numbers.

The values below come from article PMC11041685, “Emergence of fractal geometries in the evolution of a metabolic enzyme” (Nature, 2024).

For data set [1], the target named is citrate synthase from Planktothrix mougeotii (Planktothrix mougeotii). As to the kind of experiment: mass photometry; 50 nM protein unless stated otherwise, in PBS or 20 mM Tris, 200 mM NaCl pH 7.5; masses of the complexes in solution, fraction of CS subunits in each oligomeric state.
Data set [2] deals with H369R SeCS (Synechococcus elongatus PCC 7942). Described as above.
For data set [3] the target is unchanged. As to the kind of experiment: negative-stain electron microscopy; 450 nM protein on carbon-coated copper grids, 2% uranyl acetate; 2D class averages and manual particle counts.
For data set [4] the target is unchanged. As to the kind of experiment: cryo-EM structure; 22.5 µM protein on Quantifoil 2/1 grids.
Data set [5] shares this target. Described as above. This is another data set of the same source.
Data set [6] addresses SeCS D147A + L18Q (Synechococcus elongatus PCC 7942). Briefly: native MS; 200 mM ammonium acetate, positive-ion nanoelectrospray; D147A at 20 µM, D147A + L18Q at 35 µM.
Data set [7] has the same target. Briefly: mass photometry; 50 nM protein unless stated otherwise, in PBS or 20 mM Tris, 200 mM NaCl pH 7.5; masses of the complexes in solution, fraction of CS subunits in each oligomeric state.
Data set [8] deals with SeCS L18Q (Synechococcus elongatus PCC 7942). Described as above.
Data set [9] has the same target. As to the kind of experiment: negative-stain electron microscopy; 450 nM protein on carbon-coated copper grids, 2% uranyl acetate; 2D class averages and manual particle counts.
For data set [10] the target is unchanged. As to the kind of experiment: SAXS; dilution series from the highest concentration, 25 mM Tris-HCl pH 7.5, 200 mM NaCl, 20 °C; Rg by Guinier approximation against Rg of models of the 6mer, 18mer and 54mer.
Data set [11] addresses citrate synthase from Cyanobium sp. PCC7001 (Cyanobium sp. PCC7001). Briefly: mass photometry; 50 nM protein unless stated otherwise, in PBS or 20 mM Tris, 200 mM NaCl pH 7.5; masses of the complexes in solution, fraction of CS subunits in each oligomeric state.
In data set [12] the target is citrate synthase from Synechococcus elongatus PCC 7942 (Synechococcus elongatus PCC 7942). As to the kind of experiment: mass photometry; with acetyl-CoA, oxaloacetate or citrate: protein incubated 10 min with the substrate, same substrate concentration in the buffer; cys4 after oxidation.
Data set [13] shares this target. Briefly: mass photometry; 50 nM protein unless stated otherwise, in PBS or 20 mM Tris, 200 mM NaCl pH 7.5; masses of the complexes in solution, fraction of CS subunits in each oligomeric state.
Data set [14] has the same target. Briefly: mass photometry; pH titration, 20 mM Tris, 200 mM NaCl pH 7–9.5, 50 nM protein.
The target is the same in data set [15]. Briefly: crystal structure; 250 µM protein incubated with 5 mM acetyl-CoA; 0.1 M citrate pH 5.5, 2.0 M ammonium sulfate, 20 °C; citrate-bound.
Data set [16] has the same target. Briefly: negative-stain electron microscopy; 450 nM protein on carbon-coated copper grids, 2% uranyl acetate; 2D class averages and manual particle counts.
Data set [17] shares this target. Briefly: SAXS; dilution series from the highest concentration, 25 mM Tris-HCl pH 7.5, 200 mM NaCl, 20 °C; Rg by Guinier approximation against Rg of models of the 6mer, 18mer and 54mer.
The target is the same in data set [18]. Briefly: cryo-EM structure; 22.5 µM protein on Quantifoil 2/1 grids.
In data set [19] the target is Δ2–6 SeCS (Synechococcus elongatus PCC 7942). As to the kind of experiment: mass photometry; 50 nM protein unless stated otherwise, in PBS or 20 mM Tris, 200 mM NaCl pH 7.5; masses of the complexes in solution, fraction of CS subunits in each oligomeric state.
Data set [20] has the same target. Briefly: cryo-EM structure; 22.5 µM protein on Quantifoil 2/1 grids.
The target in data set [21] is D147A SeCS (Synechococcus elongatus PCC 7942). Briefly: native MS; 200 mM ammonium acetate, positive-ion nanoelectrospray; D147A at 20 µM, D147A + L18Q at 35 µM.
For data set [22] the target is unchanged. Briefly: mass photometry; 50 nM protein unless stated otherwise, in PBS or 20 mM Tris, 200 mM NaCl pH 7.5; masses of the complexes in solution, fraction of CS subunits in each oligomeric state.
The target is the same in data set [23]. Briefly: native MS; 200 mM ammonium acetate, positive-ion nanoelectrospray; D147A at 20 µM, D147A + L18Q at 35 µM. This is another data set of the same source.
Substrate in data set [24]: O=C(O)CC(=O)C(=O)O
Briefly: purified protein. The data set is classed as biochemical, Synechococcus elongatus. The note with it: 0.5 mM acetyl-CoA, 50 mM Tris pH 7.5, 10 mM KCl, 25 nM protein, 25 °C.

Substrate in data set [25]: CC(=O)SCCNC(=O)CCNC(=O)[C@H](O)C(C)(C)COP(=O)(O)OP(=O)(O)OC[C@H]1O[C@@H](n2cnc3c(N)ncnc32)[C@H](O)[C@@H]1OP(=O)(O)O
Briefly: purified protein. The following applies: 1 mM oxaloacetate, 50 mM Tris pH 7.5, 10 mM KCl, 25 nM protein, 25 °C. The data set is classed as biochemical, Synechococcus elongatus.

In data set [1], “citrate synthase from Planktothrix mougeotii (enzyme)” showed a stoichiometry N of 18 subunits.
In the case of H369R SeCS (enzyme), the stoichiometry N in data set [2] was 18 subunits; in [3], 18 subunits and 54 subunits; in data set [4], 54 subunits; in data set [5], 18 subunits.
For the molecule SeCS D147A + L18Q (enzyme), the stoichiometry N in data set [6] was 2 subunits and 6 subunits; in data set [7], 2 subunits.
Regarding SeCS L18Q (enzyme), the stoichiometry N in [8], in data set [9] and in [10] was 6 subunits throughout.
“citrate synthase from Cyanobium sp. PCC7001 (enzyme)” yielded a stoichiometry N in data set [11] of 2 subunits.
With “citrate synthase from Synechococcus elongatus PCC 7942 (enzyme)”, the stoichiometry N in data set [12] is 6 subunits; in data set [13] it was 18 subunits; in data set [14] it was 6 subunits; in data set [15], 6 subunits; in data set [16] it was 18 subunits and 36 subunits and 54 subunits; in data set [17], greater than 54 subunits. In data set [18], this molecule yielded a stoichiometry N of 18 subunits.
As for Δ2–6 SeCS (enzyme), the stoichiometry N in data set [19] and in [20] was 6 subunits throughout.
In the case of D147A SeCS (enzyme), the stoichiometry N in [21] is greater than 8 subunits; in data set [22], 2 subunits; in data set [23], 4 subunits and 6 subunits.

B1: SeCS (CS of S. elongatus PCC 7942) (Synechococcus elongatus PCC 7942 = FACHB-805) (protein)
chain: MTAVSEFRPGLEGVPATLSSISFVDGQRGVLEYRGISIEQLAQQSSFLETAYLLIWGHLPTQQELTEFEHEIRYHRRIKFRIRDMMKCFPDSGHPMDALQASAAALGLFYSRRALDDPEYIRAAVVRLLAKIPTMVAAFQLIRKGNDPIQPRDELDYAANFLYMLTEREPDPVAARIFDICLTLHAEHTINASTFSAMVTASTLTDPYAVVASAVGTLAGPLHGGANEEVLDMLEAIGSVENVEPYLDHCIATKTRIMGFGHRVYKVKDPRAVILQNLAEQLFDIFGHDPYYEIAVAVEKAAAERLSHKGIYPNVDFYSGLVYRKLGIPSDLFTPVFAIARVAGWLAHWKEQLNENRIFRPTQIYTGSHNLDYTPIADRDLAIESD
notes: full length, C-terminal His tag (LE-HHHHHH) kept, E. coli BL21 (DE3); 18mer, active as homohexamer
Take B1: in the data set “purified protein [24]”, the Michaelis-Menten constant (Km) was 65.6 ± 10.6 µM and the kcat is 19.5 ± 1.7 s⁻¹. In “purified protein [25]”, the Km is 91.8 ± 9.2 µM and the kcat was determined as 24.2 ± 1.3 s⁻¹.
